Experimental data taken from patent US20080293632.

Target: SHOX full length (Homo sapiens) (UniProt O15266)
Test: cell_activity
Conditions: luciferase

Chain of SHOX full length (Homo sapiens) (O15266 whole entry): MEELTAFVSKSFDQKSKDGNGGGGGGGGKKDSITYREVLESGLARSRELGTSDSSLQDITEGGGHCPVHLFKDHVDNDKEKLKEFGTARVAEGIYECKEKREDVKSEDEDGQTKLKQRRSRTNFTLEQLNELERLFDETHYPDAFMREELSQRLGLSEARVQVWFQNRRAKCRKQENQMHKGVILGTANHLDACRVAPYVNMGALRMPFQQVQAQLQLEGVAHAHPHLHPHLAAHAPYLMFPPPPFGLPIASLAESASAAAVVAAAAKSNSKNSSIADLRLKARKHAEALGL

Substance	activity (fold induction)	activity (fold induction) (forward orientation, reverse 8-fold)
p3XG reporter (SHOX binding site before SV40 core promoter)	2	
BNP 5' flanking region reporter (BNP for / BNP rev)		10
